Experiment [1] relates to CD8+ T-cells. The experiment in a line: In vitro T-cell priming assay with aAPCs loaded with peptide/MHC and anti-CD28, pMHC multimer readout. Format: cell-based, human. The following applies: in vitro immunogenicity; for donors (percentage of positive donors) / wells (percentage of positive wells): HLA class I peptides; for Wells positive: HLA-A*02 restricted peptides. An excerpt: In order to obtain information regarding the immunogenicity of the TUMAPs of the present invention, the inventors performed investigations using an in vitro T-cell priming assay based on repeated stimulations of CD8+ T-cells with artificial antigen presenting cells (aAPCs) loaded with peptide/MHC complexes and anti-CD28 antibody.
In order to perform in vitro stimulations by artificial antigen presenting cells loaded with peptide-MHC complex (pMHC) and anti-CD28 antibody, the inventors first isolated CD8+ T-cells from fresh HLA-A*02 leukopheresis products via positive selection using CD8 microbeads (Miltenyi Biotec, Bergisch-Gladbach, Germany) of healthy donors obtained from the University clinics Mannheim, Germany, after informed consent.
PBMCs and isolated CD8+ lymphocytes were incubated in T-cell medium (TCM) until use consisting of RPMI-Glutamax (Invitrogen, Karlsruhe, Germany) supplemented with 10% heat inactivated human AB serum (PAN-Biotech, Aidenbach, Germany), 100 U/ml Penicillin/100 μg/ml Streptomycin (Cambrex, Cologne, Germany), 1 mM sodium pyruvate (CC Pro, Oberdorla, Germany), 20 μg/ml Gentamycin (Cambrex). 2.5 ng/ml IL-7 (PromoCell, Heidelberg, Germany) and 10 U/ml IL-2 (Novartis Pharma, Nürnberg, Germany) were also added to the TCM at this step.
Generation of pMHC/anti-CD28 coated beads, T-cell stimulations and readout was performed in a highly defined in vitro system using four different pMHC molecules per stimulation condition and 8 different pMHC molecules per readout condition.
The purified co-stimulatory mouse IgG2a anti human CD28 Ab 9.3 (Jung et al., 1987) was chemically biotinylated using Sulfo-N-hydroxysuccinimidobiotin as recommended by the manufacturer (Perbio, Bonn, Germany). Beads used were 5.6 μm diameter streptavidin coated polystyrene particles (Bangs Laboratories, Illinois, USA).
800,000 beads/200 μl were coated in 96-well plates in the presence of 4×12.5 ng different biotin-pMHC, washed and 600 ng biotin anti-CD28 were added subsequently in a volume of 200 μl. Stimulations were initiated in 96-well plates by co-incubating 1×10^6 CD8+ T-cells with 2×10^5 washed coated beads in 200 μl TCM supplemented with 5 ng/ml IL-12 (PromoCell) for 3 days at 37° C. Half of the medium was then exchanged by fresh TCM supplemented with 80 U/ml IL-2 and incubating was continued for 4 days at 37° C. This stimulation cycle was performed for a total of three times. For the pMHC multimer readout using 8 different pMHC molecules per condition, a two-dimensional combinatorial coding approach was used as previously described (Andersen et al., 2012) with minor modifications encompassing coupling to 5 different fluorochromes. Finally, multimeric analyses were performed by staining the cells with Live/dead near IR dye (Invitrogen, Karlsruhe, Germany), CD8-FITC antibody clone SK1 (BD, Heidelberg, Germany) and fluorescent pMHC multimers. For analysis, a BD LSRII SORP cytometer equipped with appropriate lasers and filters was used. Peptide specific cells were calculated as percentage of total CD8+ cells. Evaluation of multimeric analysis was done using the FlowJo software (Tree Star, Oregon, USA). In vitro priming of specific multimer+ CD8+ lymphocytes was detected by comparing to negative control stimulations.

For experiment [2], the target named is HLA-A*02:01 (Homo sapiens, UniProt P04439, D140Y/D185E/D98H/E176V/E277Q/G131W/G231S/I119V/I121R/I166T/I218V/L300P/L318F/N151K/N90K/P208A/P217A/Q86G/Q94H/R138H/R169H/T345S). The experiment in a line: MHC binding assay (UV-ligand exchange, beta2m ELISA, peptide exchange yield). The following applies: MHC class I binding score; binding to HLA-A*02:01 ranged by peptide exchange yield (UV-ligand exchange, β2m ELISA). The text has this: Candidate peptides for T cell based therapies according to the present invention were further tested for their MHC binding capacity (affinity). The individual peptide-MHC complexes were produced by UV-ligand exchange, where a UV-sensitive peptide is cleaved upon UV-irradiation, and exchanged with the peptide of interest as analyzed. Only peptide candidates that can effectively bind and stabilize the peptide-receptive MHC molecules prevent dissociation of the MHC complexes. To determine the yield of the exchange reaction, an ELISA was performed based on the detection of the light chain (β2m) of stabilized MHC complexes. The assay was performed as generally described in Rodenko et al. (Rodenko et al., 2006).
96 well MAXISorp plates (NUNC) were coated over night with 2 ug/ml streptavidin in PBS at room temperature, washed 4× and blocked for 1 h at 37° C. in 2% BSA containing blocking buffer. Refolded HLA-A*02:01/MLA-001 monomers served as standards, covering the range of 15-500 ng/ml. Peptide-MHC monomers of the UV-exchange reaction were diluted 100 fold in blocking buffer. Samples were incubated for 1 h at 37° C., washed four times, incubated with 2 ug/ml HRP conjugated anti-β2m for 1 h at 37° C., washed again and detected with TMB solution that is stopped with […]. Absorption was measured at 450 nm. Candidate peptides that show a high exchange yield (preferably higher than 50%, most preferred higher than 75%) are generally preferred for a generation and production of antibodies or fragments thereof, and/or T cell receptors or fragments thereof, as they show sufficient avidity to the MHC molecules and prevent dissociation of the MHC complexes.

For “220 (KMDPVAYRV; listed as Homo sapiens) [compound 220]”, in experiment [1], the “donors (percentage of positive donors)” value was “++++ (>=70% = ++++)” and the “wells (percentage of positive wells)” value is listed as “+++ (50%-69% = +++)”.

In the case of “59 (LLTDNVVKL; listed as Homo sapiens) [compound 59]”, in experiment [1], the Wells positive entry is listed as “″+″ (<20% = +)”. Also, the Peptide exchange result in experiment [2] is “″+++″ (≥50 = +++)”.

On to “19 (RLYTKLLNEA; listed as Homo sapiens) [compound 19]”, for which the Wells positive entry in experiment [1] is reported as “″+++″ (50%-69% = +++)”. Besides, in experiment [2], the Peptide exchange result is given as “″+++″ (≥50 = +++)”. In the same order, the values of “13 (FLLAEDTKV; listed as Homo sapiens) [compound 13]” are “″++″ (20%-49% = ++)” and “″+++″ (≥50 = +++)”.

In the case of “18 (FLSSLKGGLL; listed as Homo sapiens) [compound 18]”, the Wells positive result in experiment [1] is “″+″ (<20% = +)”. In addition, the Peptide exchange result in experiment [2] is given as “″+++″ (≥50 = +++)”. “124 (RVLPPSALQSV; listed as Homo sapiens) [compound 124]”: the Wells positive entry in experiment [1] was “″+″ (<20% = +)”. The Peptide exchange entry in experiment [2] is listed as “″+++″ (≥50 = +++)”. In the same order, the values of “2 (ALLPRYFFL; listed as Homo sapiens) [compound 2]” are “″++++″ (>= 70% = ++++)” and “″++″ (≥20% = ++)”. As to “38 (SLAPTPVSA; listed as Homo sapiens) [compound 38]”, the Wells positive entry in experiment [1] is “″+″ (<20% = +)”. Besides, the Peptide exchange entry in experiment [2] is given as “″++″ (≥20% = ++)”. The corresponding values for “141 (AVIEHLERL; listed as Homo sapiens) [compound 141]” are “″+″ (<20% = +)” and “″++++″ (≥75% = ++++)”. In the same order, the values of “22 (GLIDEVMVL; listed as Homo sapiens) [compound 22]” are “″++″ (20%-49% = ++)” and “″+++″ (≥50 = +++)”. For “9 (ILDDHLSRV; listed as Homo sapiens) [compound 9]”, in experiment [1], the Wells positive result is on record as “″+″ (<20% = +)”. Further, the Peptide exchange result in experiment [2] is recorded as “″++″ (≥20% = ++)”. In the same order, the values of “150 (RLADLEALKV; listed as Homo sapiens) [compound 150]” are “″++″ (20%-49% = ++)” and “″+++″ (≥50 = +++)”. In the same order, the values of “11 (YLFEKTFNM; listed as Homo sapiens) [compound 11]” are “″+″ (<20% = +)” and “″+++″ (≥50 = +++)”. Regarding “31 (LLYGKYVSV; listed as Homo sapiens) [compound 31]”, the Wells positive result in experiment [1] is “″++″ (20%-49% = ++)”. For the same substance, the Peptide exchange entry in experiment [2] was “″+++″ (≥50 = +++)”. Consider “1 (ALIKQLFEA; listed as Homo sapiens) [compound 1]”, for which, in experiment [1], the Wells positive entry is reported as “″+″ (<20% = +)”. Besides, in experiment [2], the Peptide exchange result was “″+++″ (≥50 = +++)”.

With “133 (RTFEKIEEV; listed as Homo sapiens) [compound 133]”, the Wells positive result in experiment [1] is on record as “″+″ (<20% = +)”. Moreover, in experiment [2], the Peptide exchange entry was “″++″ (≥20% = ++)”. “42 (SILDDSFKL; listed as Homo sapiens) [compound 42]”: in experiment [1], the Wells positive entry is on record as “″+″ (<20% = +)”. In addition, in experiment [2], the Peptide exchange result is listed as “″++++″ (≥75% = ++++)”. On to “219 (FLDEKGRCV; listed as Homo sapiens) [compound 219]”, for which, in experiment [1], the “donors (percentage of positive donors)” value is “+++ (50%-69% = +++)” and the “wells (percentage of positive wells)” value was “++ (20%-49% = ++)”. Consider “14 (FLDKPEDVLL; listed as Homo sapiens) [compound 14]”, for which the Peptide exchange entry in experiment [2] was “″++″ (≥20% = ++)”. Still for that read-out and setting: under “120 (VLYEGVDEV; listed as Homo sapiens) [compound 120]” stands “″++″ (≥20% = ++)”; under “118 (LLADLKTMV; listed as Homo sapiens) [compound 118]”, “″+++″ (≥50 = +++)”. Take “52 (ALDSSNSMQTI; listed as Homo sapiens) [compound 52]”: in experiment [2], the Peptide exchange result is reported as “″++″ (≥20% = ++)”. As for “151 (SAQGSDVSLTACKV; listed as Homo sapiens) [compound 151]”, in experiment [2], the Peptide exchange entry is “″+++″ (≥50 = +++)”. In the case of “76 (YLIGEKQHYL; listed as Homo sapiens) [compound 76]”, the Peptide exchange result in experiment [2] is recorded as “″+++″ (≥50 = +++)”. Consider “91 (TVDVATPSV; listed as Homo sapiens) [compound 91]”, for which the Peptide exchange entry in experiment [2] was “″+++″ (≥50 = +++)”.

In the case of “45 (ALAELLHGA; listed as Homo sapiens) [compound 45]”, the Peptide exchange result in experiment [2] is “″+++″ (≥50 = +++)”. On the same count and under the same terms, to “121 (SLAPNIISQL; listed as Homo sapiens) [compound 121]” belongs “″+++″ (≥50 = +++)”; to “115 (SLFDVSHML; listed as Homo sapiens) [compound 115]”, “″+++″ (≥50 = +++)”.

Regarding “108 (SLAELVPGVGGI; listed as Homo sapiens) [compound 108]”, in experiment [2], the Peptide exchange result was “″+++″ (≥50 = +++)”. In the case of “106 (SLISEKILL; listed as Homo sapiens) [compound 106]”, in experiment [2], the Peptide exchange entry is “″+++″ (≥50 = +++)”. In the case of “125 (KLGDFGLLVEL; listed as Homo sapiens) [compound 125]”, the Peptide exchange result in experiment [2] was “″++++″ (≥75% = ++++)”. As to “137 (QLTEIKPLL; listed as Homo sapiens) [compound 137]”, the Peptide exchange entry in experiment [2] is on record as “″+++″ (≥50 = +++)”. As to “34 (ILLEKSVSV; listed as Homo sapiens) [compound 34]”, the Peptide exchange result in experiment [2] was “″+++″ (≥50 = +++)”. As for “25 (SLADRLIGV; listed as Homo sapiens) [compound 25]”, the Peptide exchange entry in experiment [2] is “″++++″ (≥75% = ++++)”. On to “149 (YQFDKVGILTL; listed as Homo sapiens) [compound 149]”, for which the Peptide exchange result in experiment [2] was “″+++″ (≥50 = +++)”. Same read-out and setting: under “79 (SLAADQLLKL; listed as Homo sapiens) [compound 79]” stands “″++″ (≥20% = ++)”; under “129 (VLIDVLKEL; listed as Homo sapiens) [compound 129]”, “″+++″ (≥50 = +++)”; under “134 (GVAGGSILKGV; listed as Homo sapiens) [compound 134]”, “″++++″ (≥75% = ++++)”. On the same count and under the same terms, under “165 (RLLDFPEAMVL; listed as Homo sapiens) [compound 165]” stands “″++++″ (≥75% = ++++)”; under “16 (VLVDQSWVL; listed as Homo sapiens) [compound 16]”, “″+++″ (≥50 = +++)”. Consider “104 (ILLTIKDDTIYL; listed as Homo sapiens) [compound 104]”, for which, in experiment [2], the Peptide exchange result was “″+++″ (≥50 = +++)”.

(Values after patent publication US10221225B2, “Peptides and combination of peptides and scaffolds thereof for use in immunotherapy against colorectal carcinoma (CRC) and other cancers” (immatics biotechnologies GmbH, priority 2015, dated 2019).)
